B1: 22019 (protein)
chain: MALPVTALLLPLALLLHAARPLEGKPIPNPLLGLDSTGSGEDLKNVFPPEVAVFEPSKAEIAHTQKATLVCLATGFYPDHVELSWWVNGKEVHSGVCTDPQPLKEQPALNDSRYCLSSRLRVSATFWQNPRNHFRCQVQFYGLSENDEWTQDRAKPVTQIVSAEAWGRADCGITSASYHQGVLSATILYEILLGKATLYAVLVSALVLMAMVKRKDSRGRAKRSGSGATNFSLLKQAGDVEENPGPTSTMALPVTALLLPLALLLHAARPQLQLQESGPGLVKPSETLSLTCTVSGDSISSGDYYWGWIRQPPGKGLEWIGHIYYSGVTYYNPSLKSRVTISVDTSRNQFSLKLSSVTAADTAVYYCTREDSSNWRSRGQGTLVTVSSLESGGGGSFEVQLLESGGGLIQPGGSLRLSCAASGFTFSSHAMTWVRQAPGKGLEWVSAISGSGDYTHYADSVKGRFTISRDNSKNTVYLQMNSLRAEDSAVYYCAKDEDGGSLLGHRGQGTLVTVSSTREQKLISEEDGSGIQNPDPAVYQLRDSKSSDKSVCLFTDFDSQTNVSQSKDSDVYITDKCVLDMRSMDFKSNSAVAWSNKSDFACANAFNNSIIPEDTFFPSSDVPCDVKLVEKSFETDTNLNFQNLSVIGFRILLLKVAGFNLLMTLRLWSSRAKRSGSGVKQTLNFDLLKLAGDVESNPGPSRGHMTEYKPTVRLATRDDVPRAVRTLAAAFADYPATRHTVDPDRHIERVTELQELFLTRVGLDIGKVWVADDGAAVAVWTTPESVEAGAVFAEIGPRMAELSGSRLAAQQQMEGLLAPHRPKEPAWFLATVGVSPDHQGKGLGSAVVLPGVEAAERAGVPAFLETSAPRNLPFYERLGFTVTADVEVPEGPRTWCMTRKPGA
B2: 22049 (protein)
chain: MALPVTALLLPLALLLHAARPQLQLQESGPGLVKPSETLSLTCTVSGDSISSGDYYWGWIRQPPGKGLEWIGHIYYSGVTYYNPSLKSRVTISVDTSRNQFSLKLSSVTAADTAVYYCTREDSSNWRSRGQGTLVTVSSLEGQPKANPTVTLFPPSSEELQANKATLVCLISDFYPGAVTVAWKADGSPVKAGVETTKPSKQSNNKYAASSYLSLTPEQWKSHRSYSCQVTHEGSTVEKTVAPTECSPIKTDVITMDPKDNCSKDANDTLLLQLTNTSAYYMYLLLLLKSVVYFAIITCCLLRRTAFCCNGEKSRAKRSGSGATNFSLLKQAGDVEENPGPTSMDWIWRILFLVGAATGAHSFEVQLLESGGGLIQPGGSLRLSCAASGFTFSSHAMTWVRQAPGKGLEWVSAISGSGDYTHYADSVKGRFTISRDNSKNTVYLQMNSLRAEDSAVYYCAKDEDGGSLLGHRGQGTLVTVSSTRASTKGPSVFPLAPSSKSTSGGTAALGCLVKDYFPEPVTVSWNSGALTSGVHTFPAVLQSSGLYSLSSVVTVPSSSLGTQTYICNVNHKPSNTKVDKRVEPKSCEVKTDSTDHVKPKETENTKQPSKSCHKPKAIVHTEKVNMMSLTVLGLRMLFAKTVAVNFLLTAKLFFLRAKRSGSGVKQTLNFDLLKLAGDVESNPGPSRGHMTEYKPTVRLATRDDVPRAVRTLAAAFADYPATRHTVDPDRHIERVTELQELFLTRVGLDIGKVWVADDGAAVAVWTTPESVEAGAVFAEIGPRMAELSGSRLAAQQQMEGLLAPHRPKEPAWFLATVGVSPDHQGKGLGSAVVLPGVEAAERAGVPAFLETSAPRNLPFYERLGFTVTADVEVPEGPRTWCMTRKPGA
B3: 22047 (protein)
chain: MALPVTALLLPLALLLHAARPQLQLQESGPGLVKPSETLSLTCTVSGDSISSGDYYWGWIRQPPGKGLEWIGHIYYSGVTYYNPSLKSRVTISVDTSRNQFSLKLSSVTAADTAVYYCTREDSSNWRSRGQGTLVTVSSLEDKTHTCPPCPAPIKTDVITMDPKDNCSKDANDTLLLQLTNTSAYYMYLLLLLKSVVYFAIITCCLLRRTAFCCNGEKSRAKRSGSGATNFSLLKQAGDVEENPGPTSMDWIWRILFLVGAATGAHSFEVQLLESGGGLIQPGGSLRLSCAASGFTFSSHAMTWVRQAPGKGLEWVSAISGSGDYTHYADSVKGRFTISRDNSKNTVYLQMNSLRAEDSAVYYCAKDEDGGSLLGHRGQGTLVTVSSTRIQNPDPAVYQLRDSKSSDKSVCLFTDFDSQTNVSQSKDSDVYITDKCVLDMRSMDFKSNSAVAWSNKSDFACANAFNNSIIPEDTFFPSPESSCDVKLVEKSFETDTNLNFQNLSVIGFRILLLKVAGFNLLMTLRLWSSRAKRSGSGVKQTLNFDLLKLAGDVESNPGPSRGHMTEYKPTVRLATRDDVPRAVRTLAAAFADYPATRHTVDPDRHIERVTELQELFLTRVGLDIGKVWVADDGAAVAVWTTPESVEAGAVFAEIGPRMAELSGSRLAAQQQMEGLLAPHRPKEPAWFLATVGVSPDHQGKGLGSAVVLPGVEAAERAGVPAFLETSAPRNLPFYERLGFTVTADVEVPEGPRTWCMTRKPGA
B4: 21987 (protein)
chain: MALPVTALLLPLALLLHAARPQLQLQESGPGLVKPSETLSLTCTVSGDSISSGDYYWGWIRQPPGKGLEWIGHIYYSGVTYYNPSLKSRVTISVDTSRNQFSLKLSSVTAADTAVYYCTREDSSNWRSRGQGTLVTVSSLEDLKNVFPPEVAVFEPSEAEISHTQKATLVCLATGFYPDHVELSWWVNGKEVHSGVCTDPQPLKEQPALNDSRYCLSSRLRVSATFWQNPRNHFRCQVQFYGLSENDEWTQDRAKPVTQIVSAEAWGRADCGFTSESYQQGVLSATILYEILLGKATLYAVLVSALVLMAMVKRKDSRGRAKRSGSGATNFSLLKQAGDVEENPGPTSMDWIWRILFLVGAATGAHSFEQVQLVESGGGLVQPGGSLRLSCAASGFTFTNHAMSWVRQAPGKGLELVSSISGNGRTTYYADSVKGRFTISRDISKNTLDLQMNSLRAEDTAVYYCAKDGGETLVDSRGQGTLVTVSSTRIQNPDPAVYQLRDSKSSDKSVCLFTDFDSQTNVSQSKDSDVYITDKCVLDMRSMDFKSNSAVAWSNKSDFACANAFNNSIIPEDTFFPSPESSCDVKLVEKSFETDTNLNFQNLSVIGFRILLLKVAGFNLLMTLRLWSSRAKRSGSGVKQTLNFDLLKLAGDVESNPGPSRGHMTEYKPTVRLATRDDVPRAVRTLAAAFADYPATRHTVDPDRHIERVTELQELFLTRVGLDIGKVWVADDGAAVAVWTTPESVEAGAVFAEIGPRMAELSGSRLAAQQQMEGLLAPHRPKEPAWFLATVGVSPDHQGKGLGSAVVLPGVEAAERAGVPAFLETSAPRNLPFYERLGFTVTADVEVPEGPRTWCMTRKPGA

What follows are molecules tested on Nalm6 cells (assay: JNG assay, co-culture with Nalm6 cells). Conditions: co-culture with Nalm6.
Format: cell-based
Experimental: Cellular supernatant is collected and assayed for the induction of cytokines (e.g., IL2).
JNG (Jurkat cells expressing EGFP under an NFAT promoter) were infected with lentiviral vectors encoding different single chain and multi-chain SARs by spinfection in the presence of 8 µg/ml of Polybrene® (Sigma, Catalog no. H9268). The Jurkat-NFAT-GFP cells are engineered in such a way that the IL-2 promoter, which carries NFAT binding sites, is cloned upstream of the GFP gene. These cells have been used to study signaling via TCR and CAR. The different SARs were stably expressed in Jurkat NFAT-GFP cells by lentiviral mediated gene transfer, followed by selection with puromycin or blasticidin. No drug selection was used in case the construct lacked an antibiotic resistance gene. The SAR-expressing Jurkat-NFAT-GFP cells were cocultured with the target cells at E:T ratio of approximately 1:2 for approximately 4 hours to 18 hours. When the interaction between SIRs and their target antigen results in activation of the NFAT pathway, GFP expression is induced. […] GFP expression was monitored by FACS analysis. The Jurkat-NFAT-GFP (parental) cells were used as control. The structure of different constructs can be determined based on their names. For example, the construct CD8SP-CD19-hu-mROO5-1-vL-[hTCRa-C SDVP]-F-F2A-Spe-IgHSP-Apa-CD20-vHH-2HCD25-G4S-CDl9-hu-mROO5-1-vH-Mlu-[hTCRb-KACIAH]-F-P2A-PAC has the following modules from 5′ to 3′ direction: a CD8 signal peptide (CD8SP), the CD19 targeting hu-mROO5-1 vL fragment (CD19-hu-mROO5-1), Xho1 cloning site, human TCRa constant chain containing CSDVP mutations (hTCRa-CSDVP), Furine cleavage site (F), F2A ribosomal skip sequence (F2A), SpeI site, human IgH signal peptide (IgHSP), Apa I restriction enzyme site, camelid CD20-2HCD25-VHH module targeting CD20, BamHI restriction enzyme site, Glycinex4-serine linker (G4S), BstI restriction enzyme site, CD19-hu-mROO5-1-vH fragment targeting CD19, Mlu I restriction enzyme site, human TCRb constant chain containing KACIAH mutations ([hTCRb-KACIAH]), Furine cleavage site (F), P2A ribosomal skip sequence and Puromycin resistance gene (PAC). The sequence of the other constructs in the table can be similarly determined from their names and by referring to the different Tables of this disclosure that provide the names and SEQ ID NO of the different modules. Alternatively, the composition and modular architecture of the different SAR constructs can be determined from their sequences by bioinformatics tools, including using nucleic acid and amino acids homology searches. A SAR is considered positive in the assay in case the SAR expressing Jurkat-NFAT-GFP cells show greater % GFP positive cells when cultured with the target cell line as compared to parental Jurkat-NFAT-GFP cells. The signs +/-, +, 2+ etc. after the name of the cell lines indicate the relative degree of positivity on the Jurkat-NFAT-GFP assay as measured by the % GFP positive cells after culture of the SAR expressing Jurkat-NFAT-GFP cells with that cell line above the % GFP cells observed in parental Jurkat NFAT-GFP cells serving as controls. In general, the number +/-, +, 2+, 3+, 4+, 5+ refer to approximately 5%, 10%, 20%, 30%, 40% and 50% GFP positive cells. The % of GFP induction in the above assay is dependent not only the relative strength of the SAR but also, among other factors, on the relative level of expression of the SAR in the JNG cells and the relative level of expression of the target antigen in the target cell line. To control for the difference in gene transduction efficiency of the different SAR constructs, the experiment was conducted with JNG cells transduced with SAR constructs co-expressing a drug resistance gene (e.g., puromycin or PAC) followed by drug selection to generate a stable population of SAR-expressing cells. […]
For B1, the “NFAT-GFP ASSAY: Nalm6” value was “+/- (refer to approximately 5%, 10%, 20%, 30%, 40% and 50% GFP positive cells)”.
B2 was tested, and the “NFAT-GFP ASSAY: Nalm6” value was “+/- (refer to approximately 5%, 10%, 20%, 30%, 40% and 50% GFP positive cells)”.
For B3, the “NFAT-GFP ASSAY: Nalm6” value was “+/- (refer to approximately 5%, 10%, 20%, 30%, 40% and 50% GFP positive cells)”.
In the case of B4, the “NFAT-GFP ASSAY: Nalm6” value is reported as “+/- (refer to approximately 5%, 10%, 20%, 30%, 40% and 50% GFP positive cells)”.

What follows are molecules tested on L363 cells (assay: JNG assay, co-culture with L363 cells). Conditions: co-culture with L363.
Format: cell-based
Summary of the method: (§1)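 Jurkat NFAT-GFP (JNG) cells stably transduced with SARs by lentivirus, with drug selection where the construct carried a resistance gene, then co-cultured with target cells at E:T ~1:2 for ~4–18 h. % GFP-positive cells measured by FACS against parental JNG; +/- to 5+ correspond to ~5–50% GFP-positive.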
With B1 the “NFAT-GFP ASSAY: L363” value was “+ (refer to approximately 5%, 10%, 20%, 30%, 40% and 50% GFP positive cells)”.
With B2 the “NFAT-GFP ASSAY: L363” value was “+/- (refer to approximately 5%, 10%, 20%, 30%, 40% and 50% GFP positive cells)”.
B3 was tested, and the “NFAT-GFP ASSAY: L363” value was “+/- (refer to approximately 5%, 10%, 20%, 30%, 40% and 50% GFP positive cells)”.
In the case of B4, the “NFAT-GFP ASSAY: L363” value is reported as “+ (refer to approximately 5%, 10%, 20%, 30%, 40% and 50% GFP positive cells)”.

What follows are molecules tested on RAJI cells (assay: JNG assay, co-culture with RAJI cells). Conditions: JNG cells expressing construct, co-culture with Raji.
Format: cell-based
Summary of the method: as §1
B1 was tested, and the “NFAT-GFP ASSAY: Raji” value was “+ (refer to approximately 5%, 10%, 20%, 30%, 40% and 50% GFP positive cells)”.
